Target: H3K4Me3 peptide
Test: ITC

Q: For “recombinant SPIN1 (from UniProt Q9Y657 1-262) (natural protein)”, which Kd is on record?
A: Its Kd is 1.1 µM.

Q: With MORC3 CW domain (domain or fragment) as the substance, how does the Kd read?
A: The Kd was 0.6 µM.

Source: publication PMC3520067
